{"source": "paper PMC12866752", "about": "“Computational Design and Glycoengineering of Interferon‐Lambda for Nasal Prophylaxis Against Respiratory Viruses” (Advanced Science, 2025)", "binders": {"B1": {"name": "wild-type human interferon-λ3 (hIFN-λ3-WT), His-tagged (ligand, UniProt Q8IZI9 22-196, looked up)", "chain": "VPVARLRGALPDARGCHIAQFKSLSPQELQAFKRAKDALEESLLLKDCKCRSRLFPRTWDLRQLQVRERPVALEAELALTLKVLEATADTDPALGDVLDQPLHTLHHILSQLRACIQPQPTAGPRTRGRLHHWLHRLQEAPKKESPGCLEASVTFNLFRLLTRDLNCVASGDLCV", "notes": "human IFN-λ3, full-length cDNA in a modified pcDNA3.1 with a TEV site and C-terminal 6xHis tag; also called wild-type hIFN-λ3; source: Expi293-F cells, transfected, from the culture supernatant, purified (Ni-NTA, SEC); not shown: His6, C-terminal, kept"}}, "target": "T1, recombinant ectodomain of human IFN-λ receptor 1 (hIFN-λR1) (human, UniProt Q8IU57 21-228)", "T1 construct": "for the receptor neither is said; also called IFNLR1; source: recombinant; plasmids transfected into Expi293-F cells; purification of the receptor not described", "T1 sequence (looked up)": "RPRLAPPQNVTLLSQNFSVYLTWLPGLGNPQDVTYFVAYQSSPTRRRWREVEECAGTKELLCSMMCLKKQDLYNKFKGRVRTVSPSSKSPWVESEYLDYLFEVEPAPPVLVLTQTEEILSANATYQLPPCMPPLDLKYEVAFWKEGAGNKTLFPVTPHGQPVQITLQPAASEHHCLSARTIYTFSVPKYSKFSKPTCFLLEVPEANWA", "experiment": "SPR; Biacore T200; His-tagged hIFN-λ3-WT or hIFN-λ3-DE1 immobilised on a Series S NTA chip to about 200 RU; analyte hIFN-λR1 ectodomain at 6.25, 12.5 and 25 nM, 60 s at 10 µL/min, 120 s dissociation; 1X PBS-P+ with 50 nM EDTA; global fit to a 1:1 model", "conditions": "both partners purified", "data": [{"binder": "B1", "values": [{"measurement": "binding result", "result": "binds"}]}]}
